# According to paper PMC8121815 (Nature Communications, 2021):
# Assays:
# Assay in all cases: ITC
# [1] = molecular target: human TOM70 (106-608) E477A, C-terminal His-tagged (human) (UniProt O94826)
# [2] = molecular target: human TOM70 (106-608) H583Q, C-terminal His-tagged (human) (UniProt O94826)
# [3] = molecular target: hTOM70 mutant H583Q (human)
# [4] = molecular target: human TOM70 (106-608) D545A, C-terminal His-tagged (human) (UniProt O94826)
# [5] = molecular target: human TOM70 (106-608) E549I, C-terminal His-tagged (human) (UniProt O94826)
# [6] = molecular target: human TOM70 (106-608) E549A, C-terminal His-tagged (human) (UniProt O94826)
# Chain of C-peptide (SARS-CoV-2 orf9b core sequence 44-70) (P0DTD2 44-70 limits assumed): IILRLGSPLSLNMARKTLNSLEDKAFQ
substance,measurement,setting,value
C-peptide (SARS-CoV-2 orf9b core sequence 44-70) (from UniProt P0DTD2 44-70),Ka,[1],3870 M⁻¹
same,Kd,[1],258 µM
same,stoichiometry N,[1],0
same,Ka,[2],1.01e+06 M⁻¹
same,stoichiometry N,[2],1.5
same,Kd,[3],0.99 µM
same,Ka,[4],20100 M⁻¹
same,Kd,[4],49.8 µM
same,stoichiometry N,[4],1
same,Ka,[5],93800 M⁻¹
same,Kd,[5],10.7 µM
same,stoichiometry N,[5],1.7
same,Ka,[6],43800 M⁻¹
same,Kd,[6],22.8 µM
same,stoichiometry N,[6],1.5
